Experimental data taken from patent publication US20160193292A1 (CURATORS OF THE UNIVERSITY OF MISSOURI, published 2016).

B3: JNK-interacting protein 1 (JIP-1) (other, UniProt Q9WVI9 1-707, looked up)
chain: MAERESGLGGGAASPPAASPFLGLHIASPPNFRLTHDISLEEFEDEDLSEITDECGISLQCKDTLSLRPPRAGLLSAGSSGSAGSRLQAEMLQMDLIDAAGDTPGAEDDEEEEDDELAAQRPGVGPPKAESNQDPAPRSQGQGPGTGSGDTYRPKRPTTLNLFPQVPRSQDTLNNNSLGKKHSWQDRVSRSSSPLKTGEQTPPHEHICLSDELPPQGSPVPTQDRGTSTDSPCRRSAATQMAPPSGPPATAPGGRGHSHRDRIHYQADVRLEATEEIYLTPVQRPPDPAEPTSTFMPPTESRMSVSSDPDPAAYSVTAGRPHPSISEEDEGFDCLSSPERAEPPGGGWRGSLGEPPPPPRASLSSDTSALSYDSVKYTLVVDEHAQLELVSLRPCFGDYSDESDSATVYDNCASASSPYESAIGEEYEEAPQPRPPTCLSEDSTPDEPDVHFSKKFLNVFMSGRSRSSSAESFGLFSCVINGEEHEQTHRAIFRFVPRHEDELELEVDDPLLVELQAEDYWYEAYNMRTGARGVFPAYYAIEVTKEPEHMAALAKNSDWIDQFRVKFLGSVQVPYHKGNDVLCAAMQKIATTRRLTVHFNPPSSCVLEISVRGVKIGVKADDALEAKGNKCSHFFQLKNISFCGYHPKNNKYFGFITKHPADHRFACHVFVSEDSTKALAESVGRAFQQFYKQFVEYTCPTEDIYLE
notes: Endogenous protein in T-cell lysates
B4: Plenty of SH3 domains (POSH) (other)
chain: MDESALLDLLECPVCLERLDASAKVLPCQHTFCKRCLLGIVGSRNELRCPECRTLVGSGVDELPSNILLVRLLDGIKQRPWKPGPGGGGGTTCTNTLRAQGSTVVNCGSKDLQSSQCGQQPRVQAWSPPVRGIPQLPCAKALYNYEGKEPGDLKFSKGDIIILRRQVDENWYHGEVSGVHGFFPTNFVQIIKPLPQPPPQCKALYDFEVKDKEADKDCLPFAKDDVLTVIRRVDENWAEGMLADKIGIFPISYVEFNSAAKQLIEWDKPPVPGVDTAECPSATAQSTSASKHPDTKKNTRKRHSFTSLTMANKSSQGSQNRHSMEISPPVLISSSNPTAAARISELSGLSCSAPSQVHISTTGLIVTPPPSSPVTTGPAFTFPSDVPYQAALGSMNPPLPPPPLLAATVLASTPSGATAAVAAAAAAAAAAGMGPRPVMGSSEQIAHLRPQTRPSVYVAIYPYTPRKEDELELRKGEMFLVFERCQDGWYKGTSMHTSKIGVFPGNYVAPVTRAVTNASQAKVSMSTAGQASRGVTMVSPSTAGGPTQKPQGNGVAGNPSVVPTAVVSAAHIQTSPQAKVLLHMSGQMTVNQARNAVRTVAAHSQERPTAAVTPIQVQNAACLGPASVGLPHHSLASQPLPPMAGPAAHGAAVSISRTNAPMACAAGASLASPNMTSAMLETEPSGRTVTILPGLPTSPESAASACGNSSAGKPDKDSKKEKKGLLKLLSGASTKRKPRVSPPASPTLDVELGAGEAPLQGAVGPELPLGGSHGRVGSCPTDGDGPVAAGTAALAQDAFHRKTSSLDSAVPIAPPPRQACSSLGPVMNEARPVVCERHRVVVSYPPQSEAELELKEGDIVFVHKKREDGWFKGTLQRNGKTGLFPGSFVENI
notes: Endogenous scaffold protein precipitated or detected in T-cell lysates (Co-IP, IP-FCM); also called Sh3Rf1

How the values were obtained:
[1] = target: B3; assay: IP-FCM with α-JIP-1 beads in the presence of Tat-POSH
[2] = target: B4; assay: IP-FCM with α-POSH beads, lysates of stimulated OT-I T cells
Description: Associated proteins were assessed by immunoblot. […] Data shown are representative of 6 independent experiments. […] Red histogram represents primary analyte and is shown to serve as a bead loading control.

[3] = target: B4; assay: IP-FCM with α-POSH beads in the presence of Tat-POSH
Rac1 = Rac1 (UniProt P63001 1-189); assay: Co-IP with antibodies against Rac1 and immunoblot, OT-I blasts re-stimulated with OVA-Tet/α-CD28
Description: The beads were incubated with the lysates washed and probed with antibodies against the Co-IP target. The levels of associated molecules (secondary analyte/Co-IP target) were quantified relative to IP target (primary analyte/loading control). Specificity was determined by comparison to both isotype and negative control antibodies (FIG. 5 and FIG. 6). […] Shaded histogram represents the staining of an isotype control. […] These two negative controls were used to establish significance of shift above background.
Associated proteins were assessed by immunoblot.

B1: JNK1 (enzyme, UniProt Q91Y86 1-384, looked up)
chain: MSRSKRDNNFYSVEIGDSTFTVLKRYQNLKPIGSGAQGIVCAAYDAILERNVAIKKLSRPFQNQTHAKRAYRELVLMKCVNHKNIIGLLNVFTPQKSLEEFQDVYIVMELMDANLCQVIQMELDHERMSYLLYQMLCGIKHLHSAGIIHRDLKPSNIVVKSDCTLKILDFGLARTAGTSFMMTPYVVTRYYRAPEVILGMGYKENVDLWSVGCIMGEMVCHKILFPGRDYIDQWNKVIEQLGTPCPEFMKKLQPTVRTYVENRPKYAGYSFEKLFPDVLFPADSEHNKLKASQARDLLSKMLVIDASKRISVDEALQHPYINVWYDPSEAEAPPPKIPDKQLDEREHTIEEWKELIYKEVMDLEERTKNGVIRGQPSPLAQVQQ
notes: Endogenous protein in T-cell lysates; also called 46KD JNK1
[1]
  binding result: binds
[2]
  binding result: binds

B2: MLK-3 (enzyme, UniProt Q80XI6 1-850, looked up)
chain: MEPLKNLFLKSPLGSWNGSGSGGGGGTGGVRPEGSPKATAAYANPVWTALFDYEPNGQDELALRKGDRVEVLSRDAAISGDEGWWAGQVGGQVGIFPSNYVSRGGGPPPCEVASFQELRLEEVIGIGGFGKVYRGSWRGELVAVKAARQDPDEDISVTAESVRQEARLFAMLAHPNIIALKAVCLEEPNLCLVMEYAAGGPLSRALAGRRVPPHVLVNWAVQIARGMHYLHCEALVPVIHRDLKSNNILLLQPIEGDDMEHKTLKITDFGLAREWHKTTQMSAAGTYAWMAPEVIKASTFSKGSDVWSFGVLLWELLTGEVPYRGIDCLAVAYGVAVNKLTLPIPSTCPEPFAQLMADCWAQDPHRRPDFASILQQLEALEAQVLREMPRDSFHSMQEGWKREIQGLFDELRAKEKELLSREEELTRAAREQRSQAEQLRRREHLLAQWELEVFERELTLLLQQVDRERPHVRRRRGTFKRSKLRARDGGERISMPLDFKHRITVQASPGLDRRRNVFEVGAGDSPTFPRFRAIQLEPTESGQTWGRQSPRRLEDSSNGERRACWAWGPSSPKPGEAQNGRRRSRMDEATWYLDSDDSSPLGSPSTPPALNGNPPRPSPEPEEPRRAGPTERGNSSGTPKLIQRALLRGTALLASLGLGRDLQPPGGLSRERGESPTAPPPAQMPSPCPPELPSTPLIRLSQTTPDAHSSPTPGPLLLDLGVPSGQPSAKSPRREETRGRTVSPPPGISRSAPGTPGTPRSPPLGLISRPRPSPLRSRIDPWSFVSAGPRPSPLPSPQPAPRRAPWTLFPDSDPFWDSPPANPFRGGSQDCRTQTKDMGAQAPWAPEAGP
notes: Endogenous protein in T-cell lysates; also called MAP3K protein MLK-3
[3]
  binding result: binds

## B3
[2]
  binding result: binds

## B4
Rac1
  binding result: binds
